Experiment [1] has as its target prefusion stabilized trimeric SARS-CoV-2 spike protein ectodomain (SARS-CoV-2) (UniProt P0DTC2).
The target is the same in experiment [2]. This is another data set of the same source.

Usually IC50 stands for the midpoint of a concentration-inhibition curve. High values mean weaker potency, low ones greater potency. One may read the Kd as the concentration at which binding is half-saturated. A higher Kd goes with a looser complex. Consider ACE2-short-3HB (receptor), for which, in experiment [1], the 50% inhibitory concentration (IC50) turned out to be 2.9 nM. In experiment [2], the Kd was determined as 3.9 nM.

(Values after US20240035012A1.)
